# Assay results as given in the RNAGym collection of RNA variant scans (doi:10.7554/elife.90254).
# B1: LINE1-full (parent)
# chain: UACGUAGGUGGUUUUCCCCUGAUAGUGCUAAGGGGGCCUGGAAGUUUGGACUGGGCAGAGCUCAACACAGCGUGGCAAAGUGGCUGUGGCUAGACUGCCUCUCUGGAUUCCUCGUCACUCAGCAGGGCAUCUCUGAGAGAAAUGCC
# Variants of: B1
# Test: self-cleavage, relative activity (ratio to wild type); higher = more cleavage; in vitro, sequencing; the parent is a self-cleaving ribozyme
row,Variant,self-cleavage
1,U91C,0.67
2,A24C A140G,1.15
3,U130C U134C,1.51
4,U9G A64C,0.18
5,A59U C128U,1.02
6,G35C C113A,1.68
7,U39G U96C,0.11
8,U13C A124G,1.04
9,U12G G55A,0.15
10,U5A U46C,1.03
11,A65U G97A,0.04
12,A65G A124U,0.04
13,A24C C99A,0.47
14,G60A U100C,0.03
15,U115C,1.58
16,G8A U46A,2.02
17,C98U A142U,0.47
18,U45C A59C,0.79
19,U45C A59U,1.04
20,G21A U119C,1.25
21,U45C A136G,1.5
22,A77U G97U,0.09
23,A59G U87G,0
24,U85C A141G,0.16

row,Variant,self-cleavage
1,A78U U91C,1.13
2,G27A A42U,0.99
3,U102A A107U,1.66
4,U9C U112A,1.46
5,G58C G72U,0.02
6,A77C C116U,1.04
7,U5G U100C,1.15
8,A67U C131A,0.13
9,A79G G89C,0.05
10,U20C U96A,0.12
11,G126U U134C,1.49
12,A43U A67G,0.56
13,U1C U46A,0.43
14,G32U U96C,0.08
15,G41C A59G,0.19
16,U134G A136U,1.72
17,U81G A136G,1.65
18,G83A G97C,0.18
19,G72A A138G,1.51
20,U91A U119C,0.84
21,U26C U62A,0.02
22,A64U U132A,0.07
23,U1C U96A,0.09
24,A22G U26A,1.4

row,Variant,self-cleavage
1,C116U A138U,1.41
2,U14G U85C,0.92
3,C133A U143C,1.67
4,U1A U109A,1.56
5,A69G A124G,0.32
6,G54C A117U,1.23
7,U29C U112C,1.07
8,U47C U73A,2.06
9,A22C U96C,0.26
10,U73C C76U,2.52
11,G40U U52A,0.99
12,A31G A59U,0.42
13,G35A U100C,1.36
14,A24G A64U,0.47
15,U12G A92U,0.62
16,U14C G54A,0.71
17,A57G U134G,0.78
18,U12G U112C,1.01
19,U5C U47A,0.92
20,A30C A107G,2.06
21,A94C A124G,0.02
22,A121U G122A,0.27
23,U15A U39G,1.02
24,U29A U45C,0.96

row,Variant,self-cleavage
1,U134C A141G,1.41
2,A6G U13C,0.93
3,A6U A43G,1.01
4,U134C A140G,1.58
5,A65G G89C,0.03
6,U45A U81C,1.92
7,A67U A79G,0.18
8,U47C U143C,1.57
9,A31G A43G,0.98
10,U1A U9A,1.15
11,A59C U102A,1.1
12,U112C,1.36
13,U12C G40U,1.2
14,U1C U23C,0.98
15,U87A U132C,0.07
16,U96A U109A,0.05
17,U12G A107G,1.58
18,A43U A77U,1.02
19,U100A U104C,1.68
20,U108A A138G,1.79
21,G89C A140U,0.05
22,U87A U104A,0.06
23,A92U A107G,0.94
24,C63U U115C,0.32

row,Variant,self-cleavage
1,G135C,1.55
2,A2G A69U,0.15
3,A6G A42U,0.82
4,U15A G80A,1.16
5,U12C G122U,1.04
6,C19U G72C,1.31
7,U23C G54A,0.51
8,G97A U100C,0.33
9,U29C C123U,1.21
10,G8C A140G,2.03
11,G126C,1.19
12,A31U A43G,0.9
13,U12C A67U,0.21
14,U14G A42U,0.76
15,A43U A64U,0.43
16,A107C U115C,1.38
17,C37U U104A,0.59
18,U5C G41U,1.03
19,U13A G82U,0.65
20,G10A,1.11
21,U29C A67G,0.76
22,A77C U81C,0
23,U45C A69U,0.03
24,U96C C113U,0.05

row,Variant,self-cleavage
1,C103A,1.38
2,U46A C68U,0.07
3,A78C U91C,1.24
4,C3A U85A,0.13
5,A42C U91C,0.4
6,U26C U143C,1.07
7,A69G A121C,0.51
8,C56U C111U,0.19
9,U47C A69G,0.44
10,U96A U112A,0.06
11,A42U G89U,0.04
12,A6U A64C,0.68
13,A50G U104C,1.08
14,C19A A136U,0.59
15,A2G U119A,0.96
16,U100C G125C,1.89
17,A94U U130A,0.23
18,U81A U119C,2.53
19,U12G U132C,1.02
20,U87G A136U,0.18
21,C99A A129U,0.46
22,G8A C37U,1.31
23,A124U C128U,1.21
24,A78G U91A,0.38

row,Variant,self-cleavage
1,U96A A121U,0.05
2,U29C C66U,0.07
3,U9C G36U,2.08
4,A22U U115A,0.63
5,G55U U85A,0.03
6,A24U A57C,0
7,U134C G135A,2.1
8,U9A A141G,1.36
9,U15A U87G,0.2
10,U73C C131A,1.55
11,G10U U91C,0.44
12,U13C G89A,0.04
13,U52A U81C,1.51
14,A42G C111U,1.37
15,G53A U96A,0.06
16,A50G G54A,0.16
17,U12G U119A,1.32
18,A69U C131A,0.07
19,A59G U73A,0.08
20,U5A G40A,1.01
21,U5A U100C,0.82
22,U13A A30U,0.7
23,U12C G93A,0.08
24,A43G C90A,0.07

row,Variant,self-cleavage
1,G44C U112C,1.18
2,A6G U87A,0.17
3,U73A A77U,0.69
4,A129G U134A,0.89
5,U45A A124U,1.39
6,U109C U115A,0.82
7,U100A U134A,1.02
8,U112G A117U,1.92
9,U20A U87C,0.31
10,A50G A138C,1.12
11,A24G G25U,1.14
12,U46C U112A,1.26
13,U87C U104C,0.22
14,U109G G127A,1.53
15,U9A G105A,1.35
16,U5A U130C,0.96
17,U104C G126U,1.59
18,C19U A50G,0.77
19,A138U A141G,1.17
20,U109C C111U,1.31
21,U73C G114A,1.54
22,U13C C120U,1.05
23,A6U U134A,1.28
24,U52C A107G,1

row,Variant,self-cleavage
1,U47C A50C,0.94
2,U23C U115A,1.23
3,G32A U39C,1.07
4,A77G U85C,0.25
5,U47A A124C,1.18
6,U26A G88A,0.07
7,A24U A67U,0.1
8,C76U U104C,2.05
9,U14G A79G,0.42
10,G34A U73A,0.8
11,A92G U143C,0.36
12,A57G G106A,1.04
13,U52A C98U,0.12
14,U104A A121U,1.11
15,U85A C98G,0.28
16,G21A U73C,1.41
17,U52A G106C,1.84
18,G55A A94G,0.2
19,U9G A124C,0
20,A79G U119A,1.06
21,A79G G97A,0.08
22,U14C G58U,0.03
23,U47A A64G,0.2
24,G40A G60U,0.02

row,Variant,self-cleavage
1,U20G U39C,0.98
2,U12C C146G,1.03
3,A78G C111U,0.93
4,A22G A78U,1.85
5,U12C A43G,1.33
6,G125A,1.19
7,U132C C146U,1.51
8,G48A A69G,0.3
9,G7C U81A,2.25
10,C101A A124G,0.98
11,U5C G35U,1.19
12,U39C U85C,0.18
13,A57C G86A,0.04
14,U20A A69G,0.45
15,A30U G125U,1.17
16,G89A U143C,0.03
17,U1C A92G,0.14
18,U13A A121U,1.12
19,C63U A136G,0.34
20,G54C U81A,0.4
21,A2U A79G,1.45
22,U23C G53A,0.87
23,U100C U104A,1.37
24,C3U A117G,0.45

row,Variant,self-cleavage
1,A67G G114A,0.38
2,G49A U91G,0.04
3,A24G A136G,1.15
4,U102C A121G,1.06
5,G10U U130C,0.81
6,A6G U130A,1.18
7,C3U C131U,1.02
8,A67G A142C,0.93
9,U81C A136G,1.12
10,U73C G127A,1.7
11,U62C U108G,0
12,C19U A138G,1.01
13,U109A A124U,1.61
14,A67G A92U,0.41
15,G21A U52A,1.76
16,U15A A43G,0.97
17,U100A U143A,0.91
18,U62G G82U,0.03
19,G74A A136U,0.91
20,U39A A79G,1.35
21,U23C G75C,1.23
22,U23C G74A,0.99
23,C17U A141G,0
24,U52C U109A,1.6

row,Variant,self-cleavage
1,U62C C103U,0.03
2,U12C C71U,0.9
3,U13G A121G,1.1
4,U39C A69C,0.11
5,G82A U132C,2.22
6,U52C U87C,0.11
7,U1A G54A,1.05
8,G34C A124G,2.03
9,U52A G54C,0.43
10,G10U U104C,2.42
11,A42G U109A,1.43
12,A6G A64U,0.87
13,U81A A117U,1.94
14,A59G U100C,0.16
15,A59G U100A,0.07
16,U73A G88A,0.07
17,U73C G88U,0.13
18,C37G A121G,1.23
19,C84U,0.14
20,U14C A67G,0.61
21,A22U G83A,0.82
22,C51U A77G,2.03
23,G93U A141U,0.02
24,U20A U45A,1.05

row,Variant,self-cleavage
1,U85G C113A,0.14
2,U9C C103U,1.4
3,A78G G106U,0.66
4,U9A A24U,1.01
5,U47A G125C,1.49
6,U96C A121U,0.13
7,A24U A64U,0.35
8,A42U U109A,1.39
9,G60A U73A,0.02
10,G33A U39C,1.16
11,C38U C98G,0.12
12,U29C U132A,1.47
13,G60A A124G,0.05
14,C3U U13C,0.74
15,A77C U115A,1.28
16,C3A G32A,0.88
17,U62A A77U,0.01
18,A64C G75U,0.08
19,G70U U81C,0.3
20,A22U U112A,1.19
21,A50U A79C,1.3
22,A50U A79G,1.27
23,C118U U134C,1.13
24,A24U A124G,1.06

row,Variant,self-cleavage
1,G32U G55A,0.18
2,A6C U134C,0.61
3,G86A U96C,0.05
4,G35A A42G,1.17
5,G80U U87A,0.08
6,A30G U104A,0.61
7,U46C U130C,1.54
8,U9A A117U,1.11
9,U5C G40A,0.42
10,C90U U100C,0
11,G74A U104A,0.75
12,C95A A129G,0.09
13,A57U U73C,0.1
14,U13C A117U,1.07
15,U112C A129U,1.67
16,U9G G93C,0.11
17,U87C U102C,0.36
18,U39A G93A,0.04
19,U14C A94C,0.09
20,A6U G105U,1.71
21,A24U U104C,1.25
22,G10A A136U,0.95
